Patent EP3443010B1
Numbering of substitutions follows the chain as printed. Blank lines part the entries; values can stand above or below the binder they belong to.

Columns and labels:
[1] = molecular target: recombinant hSIRPa (Sino Biologicals, reference 11612-H08H) (human) (UniProt P78324); test: ELISA, hSIRPa (Sino 11612-H08H) coated at 0.5 ug/ml, anti-human IgG detection
[2] = molecular target: recombinant hSIRPa (Sino Biologicals, reference 11612-H08H) (human) (UniProt P78324); test: ELISA, hSIRPa (Sino 11612-H08H) coated at 0.5 ug/ml, anti-human IgG detection; second experiment
[3] = molecular target: recombinant hSIRPa (Sino Biologicals, reference 11612-H08H) (human) (UniProt P78324); test: ELISA, hSIRPa (Sino 11612-H08H) coated at 0.5 ug/ml, anti-human IgG detection; third experiment
[4] = molecular target: recombinant hSIRPa (Sino Biologicals, reference 11612-H08H) (human) (UniProt P78324); test: ELISA, hSIRPa (Sino 11612-H08H) coated at 0.5 ug/ml, anti-human IgG detection; first experiment

Sequence of recombinant hSIRPa (Sino Biologicals, reference 11612-H08H) (human) (P78324 31-370): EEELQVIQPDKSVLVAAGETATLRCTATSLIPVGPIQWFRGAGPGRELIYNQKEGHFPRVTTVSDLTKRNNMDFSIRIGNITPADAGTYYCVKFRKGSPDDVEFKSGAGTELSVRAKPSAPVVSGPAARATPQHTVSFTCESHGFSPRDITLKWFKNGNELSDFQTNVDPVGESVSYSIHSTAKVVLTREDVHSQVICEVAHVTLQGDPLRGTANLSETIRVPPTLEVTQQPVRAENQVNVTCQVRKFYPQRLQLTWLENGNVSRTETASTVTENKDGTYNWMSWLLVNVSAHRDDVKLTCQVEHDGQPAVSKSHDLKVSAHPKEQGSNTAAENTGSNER

EC50 [1]: 3.3 ng/mL
B1: Kwar23 (antibody, from another filing, V domains shown)
VH: EVQLQQSGAELVKPGASVKLSCTASGFNIKDYYIHWVQQRTEQGLEWIGRIDPEDGETKYAPKFQDKATITADTSSNTAYLHLSSLTSEDTAVYYCARWGAYWGQGTLVTVSS
VL: QIVLTQSPAIMSASPGEKVTLTCSASSSVSSSYLYWYQQKPGSSPKLWIYSTSNLASGVPARFSGSGSGTSYSLTISSMEAEDAASYFCHQWSSYPRTFGAGTKLELK

EC50 [2]: 4.61 ng/mL
B2: HELA (antibody, human IgG4 S228P, kappa, V domains shown)
VH: EVQLVQSGAEVKKPGESLRISCKASGYSFTSYWVHWVRQMPGKGLEWMGNIDPSDSDTHYSPSFQGHVTLSVDKSISTAYLQLSSLKASDTAMYYCVRGGTGTLAWFAYWGQGTLVTVSS
VL: DVVMTQSPLSLPVTLGQPASISCRSSQSLVHSYGNTYLYWYQQRPGQSPRLLIYRVSNRFSGVPDRFSGSGSGTDFTLKISRVEAEDVGVYFCFQGTHVPYTFGGGTKVEIKR

EC50 [3]: 2.53 ng/mL
B3: HALB (antibody, human IgG4 S228P, kappa, V domains shown)
VH: B2 VH with S28T, M48I, S61N, P62Q, S63K, Q65K, G66D, L104M
VL: B2 VL with Y41F, F92Y

EC50 [4]: 4.4 ng/mL
B4: HEFLB (antibody, human IgG4 S228P, kappa, V domains shown)
VH: B2 VH with W106Y
VL: B2 VL with Y41F, F92Y

EC50 [3]: 2.95 ng/mL
B5: HBLB (antibody, human IgG4 S228P, kappa, V domains shown)
VH: B2 VH with S61N, P62Q, S63K, Q65K, G66D, L104M
VL: B2 VL with Y41F, F92Y

EC50 [4]: 7.1 ng/mL
B6: HEFLA (antibody, human IgG4 S228P, kappa, V domains shown)
VH: B2 VH with W106Y
VL: B2 VL

EC50 [2]: 5.59 ng/mL
B7: HCLB (antibody, human IgG4 S228P, kappa, V domains shown)
VH: B2 VH with L104M
VL: B2 VL with Y41F, F92Y

EC50 [4]: 4 ng/mL
B8: HFLB (antibody, human IgG4 S228P, kappa, V domains shown)
VH: B2 VH with L104M, W106Y
VL: B2 VL with Y41F, F92Y

EC50 [3]: 2.68 ng/mL
B9: HBLA (antibody, human IgG4 S228P, kappa, V domains shown)
VH: B2 VH with S61N, P62Q, S63K, Q65K, G66D, L104M
VL: B2 VL

EC50 [2]: 4.13 ng/mL
B10: HELB (antibody, human IgG4 S228P, kappa, V domains shown)
VH: B2 VH
VL: B2 VL with Y41F, F92Y

EC50 [4]: 3.9 ng/mL
B11: HALA (antibody, human IgG4 S228P, kappa, V domains shown)
VH: B2 VH with S28T, M48I, S61N, P62Q, S63K, Q65K, G66D, L104M
VL: B2 VL

EC50 [4]: 5.1 ng/mL
B12: HFLA (antibody, human IgG4 S228P, kappa, V domains shown)
VH: B2 VH with L104M, W106Y
VL: B2 VL

EC50 [2]: 5.6 ng/mL
B13: HCLA (antibody, human IgG4 S228P, kappa, V domains shown)
VH: B2 VH with L104M
VL: B2 VL
